Drawing on US20120244166A1 (published 2012), this text covers EC50 and Kd for 15 molecules.

One assay deals with Du156.12. Briefly: ELISA.
The target of assay [1] is gp41 MPER peptide (residues 657 to 669 of gp41 linked to a C-terminal C9 tag). Briefly: SPR.

B1: 2 (Heavy chain: G54S) (antibody, V domains shown)
VH: QVQLVQSGGQMKKPGESMRISCRASGYEFIDCTLNWIRLAPGKRPEWMGWLKPRGGAVNYARPLQGRVTMTRDVYSDTAFLELRSLTVDDTAVYFCTRGKNCDYNWDFEHWGRGTPVIVSS
VL: EIVLTQSPGTLSLSPGETAIISCRTSQYGSLAWYQQRPGQAPRLVIYSGSTRAAGIPDRFSGSRWGPDYNLTISNLESGDFGVYYCQQYEFFGQGTKVQVDI
With B1, in the assay with Du156.12, the half-maximal effective concentration (EC50) was determined as 0.072 µg/mL.

B2: Insertion-AA (antibody, V domains shown)
VH: QVQLVQSGGQMKKPGESMRISCRASGYEFIDCTLNWIRLAPGKRPEWMGWLKPRGGAVNYARPLQGRVTMTRDVYSDTAFLELRSLTVDDTAVYFCTRGKNCDYNWDFEHWGRGTPVIVSS
VL: EIVLTQSPGTLSLSPGETAIISCRTSQYGSAALAWYQQRPGQAPRLVIYSGSTRAAGIPDRFSGSRWGPDYNLTISNLESGDFGVYYCQQYEFFGQGTKVQVDI
In turn, B2 came in with an EC50 in the assay with Du156.12 of 2.02 µg/mL.

B3: C32AC98S (antibody, V domains shown)
VH: QVQLVQSGGQMKKPGESMRISCRASGYEFIDSTLNWIRLAPGKRPEWMGWLKPRGGAVNYARPLQGRVTMTRDVYSDTAFLELRSLTVDDTAVYFCTRGKNADYNWDFEHWGRGTPVIVSS
VL: EIVLTQSPGTLSLSPGETAIISCRTSQYGSLAWYQQRPGQAPRLVIYSGSTRAAGIPDRFSGSRWGPDYNLTISNLESGDFGVYYCQQYEFFGQGTKVQVDI
B3 registered an EC50 with Du156.12 of 0.048 µg/mL.

B4: 2F5 L100AS-V100DS (antibody, V domains shown)
VH: RITLKESGPPLVKPTQTLTLTCSFSGFSLSDFGVGVGWIRQPPGKALEWLAIIYSDDDKRYSPSLNTRLTITKDTSKNQVVLVMTRVSPVDTATYFCAHRRGPTTSFGSPIARGPVNAMDVWGQGITVTISS
VL: ALQLTQSPSSLSASVGDRITITCRASQGVTSALAWYRQKPGSPPQLLIYDASSLESGVPSRFSGSGSGTEFTLTISTLRPEDFATYYCQQLHFYPHTFGGGTRVDVRR
B4: binding in assay [1] was characterised by a dissociation constant (Kd) of 36.7 nM.

B5: 2F5 V100DS (antibody, V domains shown)
VH: RITLKESGPPLVKPTQTLTLTCSFSGFSLSDFGVGVGWIRQPPGKALEWLAIIYSDDDKRYSPSLNTRLTITKDTSKNQVVLVMTRVSPVDTATYFCAHRRGPTTLFGSPIARGPVNAMDVWGQGITVTISS
VL: ALQLTQSPSSLSASVGDRITITCRASQGVTSALAWYRQKPGSPPQLLIYDASSLESGVPSRFSGSGSGTEFTLTISTLRPEDFATYYCQQLHFYPHTFGGGTRVDVRR
In assay [1], B5 gave a Kd of 14.3 nM.

B6: 2F5 V100DW (antibody, V domains shown)
VH: RITLKESGPPLVKPTQTLTLTCSFSGFSLSDFGVGVGWIRQPPGKALEWLAIIYSDDDKRYSPSLNTRLTITKDTSKNQVVLVMTRVSPVDTATYFCAHRRGPTTLFGWPIARGPVNAMDVWGQGITVTISS
VL: ALQLTQSPSSLSASVGDRITITCRASQGVTSALAWYRQKPGSPPQLLIYDASSLESGVPSRFSGSGSGTEFTLTISTLRPEDFATYYCQQLHFYPHTFGGGTRVDVRR
B6 yielded a dissociation constant Kd in assay [1] of 11.9 nM.

B7: 2F5 (antibody, V domains shown)
VH: RITLKESGPPLVKPTQTLTLTCSFSGFSLSDFGVGVGWIRQPPGKALEWLAIIYSDDDKRYSPSLNTRLTITKDTSKNQVVLVMTRVSPVDTATYFCAHRRGPTTLFGVPIARGPVNAMDVWGQGITVTISS
VL: ALQLTQSPSSLSASVGDRITITCRASQGVTSALAWYRQKPGSPPQLLIYDASSLESGVPSRFSGSGSGTEFTLTISTLRPEDFATYYCQQLHFYPHTFGGGTRVDVRR
Consider B7, for which, in assay [1], the dissociation constant (Kd) came out at 9.5 nM.

B8: 2F5 L100AW-V100DW (antibody, V domains shown)
VH: RITLKESGPPLVKPTQTLTLTCSFSGFSLSDFGVGVGWIRQPPGKALEWLAIIYSDDDKRYSPSLNTRLTITKDTSKNQVVLVMTRVSPVDTATYFCAHRRGPTTWFGWPIARGPVNAMDVWGQGITVTISS
VL: ALQLTQSPSSLSASVGDRITITCRASQGVTSALAWYRQKPGSPPQLLIYDASSLESGVPSRFSGSGSGTEFTLTISTLRPEDFATYYCQQLHFYPHTFGGGTRVDVRR
In assay [1], B8 displayed a Kd of 12.8 nM.

B9: 2F5 L100AS-F100BS (antibody, V domains shown)
VH: RITLKESGPPLVKPTQTLTLTCSFSGFSLSDFGVGVGWIRQPPGKALEWLAIIYSDDDKRYSPSLNTRLTITKDTSKNQVVLVMTRVSPVDTATYFCAHRRGPTTSSGVPIARGPVNAMDVWGQGITVTISS
VL: ALQLTQSPSSLSASVGDRITITCRASQGVTSALAWYRQKPGSPPQLLIYDASSLESGVPSRFSGSGSGTEFTLTISTLRPEDFATYYCQQLHFYPHTFGGGTRVDVRR
In assay [1], B9 returned a dissociation constant (Kd) of 10.9 nM.

B10: 2F5 F100BS (antibody, V domains shown)
VH: RITLKESGPPLVKPTQTLTLTCSFSGFSLSDFGVGVGWIRQPPGKALEWLAIIYSDDDKRYSPSLNTRLTITKDTSKNQVVLVMTRVSPVDTATYFCAHRRGPTTLSGVPIARGPVNAMDVWGQGITVTISS
VL: ALQLTQSPSSLSASVGDRITITCRASQGVTSALAWYRQKPGSPPQLLIYDASSLESGVPSRFSGSGSGTEFTLTISTLRPEDFATYYCQQLHFYPHTFGGGTRVDVRR
In assay [1], B10 yielded an equilibrium dissociation constant (Kd) of 11.9 nM.

B11: 2F5 I100FS (antibody, V domains shown)
VH: RITLKESGPPLVKPTQTLTLTCSFSGFSLSDFGVGVGWIRQPPGKALEWLAIIYSDDDKRYSPSLNTRLTITKDTSKNQVVLVMTRVSPVDTATYFCAHRRGPTTLFGVPSARGPVNAMDVWGQGITVTISS
VL: ALQLTQSPSSLSASVGDRITITCRASQGVTSALAWYRQKPGSPPQLLIYDASSLESGVPSRFSGSGSGTEFTLTISTLRPEDFATYYCQQLHFYPHTFGGGTRVDVRR
Turning to B11, the dissociation constant (Kd) in assay [1] was found to be 27.3 nM.

B12: 2F5 L100AS (antibody, V domains shown)
VH: RITLKESGPPLVKPTQTLTLTCSFSGFSLSDFGVGVGWIRQPPGKALEWLAIIYSDDDKRYSPSLNTRLTITKDTSKNQVVLVMTRVSPVDTATYFCAHRRGPTTSFGVPIARGPVNAMDVWGQGITVTISS
VL: ALQLTQSPSSLSASVGDRITITCRASQGVTSALAWYRQKPGSPPQLLIYDASSLESGVPSRFSGSGSGTEFTLTISTLRPEDFATYYCQQLHFYPHTFGGGTRVDVRR
For the molecule B12, in assay [1], the Kd was determined as 10.8 nM.

B13: 2F5 F100BS-I100FS (antibody, V domains shown)
VH: RITLKESGPPLVKPTQTLTLTCSFSGFSLSDFGVGVGWIRQPPGKALEWLAIIYSDDDKRYSPSLNTRLTITKDTSKNQVVLVMTRVSPVDTATYFCAHRRGPTTLSGVPSARGPVNAMDVWGQGITVTISS
VL: ALQLTQSPSSLSASVGDRITITCRASQGVTSALAWYRQKPGSPPQLLIYDASSLESGVPSRFSGSGSGTEFTLTISTLRPEDFATYYCQQLHFYPHTFGGGTRVDVRR
Turning to B13, the Kd in assay [1] is 46.9 nM.

B14: 2F5 L100AW (antibody, V domains shown)
VH: RITLKESGPPLVKPTQTLTLTCSFSGFSLSDFGVGVGWIRQPPGKALEWLAIIYSDDDKRYSPSLNTRLTITKDTSKNQVVLVMTRVSPVDTATYFCAHRRGPTTWFGVPIARGPVNAMDVWGQGITVTISS
VL: ALQLTQSPSSLSASVGDRITITCRASQGVTSALAWYRQKPGSPPQLLIYDASSLESGVPSRFSGSGSGTEFTLTISTLRPEDFATYYCQQLHFYPHTFGGGTRVDVRR
In the case of B14, the dissociation constant Kd in assay [1] stood at 11.3 nM.

B15: 2F5 F100BW (antibody, V domains shown)
VH: RITLKESGPPLVKPTQTLTLTCSFSGFSLSDFGVGVGWIRQPPGKALEWLAIIYSDDDKRYSPSLNTRLTITKDTSKNQVVLVMTRVSPVDTATYFCAHRRGPTTLWGVPIARGPVNAMDVWGQGITVTISS
VL: ALQLTQSPSSLSASVGDRITITCRASQGVTSALAWYRQKPGSPPQLLIYDASSLESGVPSRFSGSGSGTEFTLTISTLRPEDFATYYCQQLHFYPHTFGGGTRVDVRR
As for B15, the Kd in assay [1] came out at 11.2 nM.
